Source: patent publication US20040186044A1, “Modulation of myelination by interaction with P75 and TRK receptors” (priority 2002, published 2004)

Experiments:
[1] = test system: Schwann cell/neuronal cocultures; test: Western blot of myelin proteins MAG and P0 in Schwann cell/DRG neuronal cocultures; type: cell-based, rat
Protocol: (§1) Dorsal Root Ganglia (DRG) Neuronal Schwann Cell Cocultures. Purified neuronal and Schwann cell cultures were prepared as previously described. Neuronal cultures were established from DRG neurons obtained from Sprague-Dawley rat embryos at 15 days gestation (Simonsen Laboratories, Gilroy, Calif.). DRG neurons were dissociated and plated onto collagen coated coverslips. Nonneuronal cells were eliminated by cycling (three 2-day cycles) with a fluorodeoxyuridine-containing medium (10 μM). NGF-dependent neurons were then maintained for 1 week in a medium consisting of 10% FBS in MEM and 100 ng/ml of NGF.
(§2) Schwann cells were isolated from the sciatic nerve of 4-day-old rat pups. Schwann cells were purified by using cytosine arabinoside and Thy-1.1 antibody mediated lysis of the fibroblasts (the anti-Thy-1.1 antibody was obtained from the American Type Culture Collection). Approximately 100,000 purified Schwann cells were than seeded onto purified neuronal cultures of ˜50,000 cells and allowed to proliferate and ensheath the axons (˜1 week). Myelination was then initiated with the addition of ascorbic acid (50 μg/ml), which was replenished with feeding every 2 to 3 days.
(§3) Western Blot Analysis. Samples from Schwann cell/neuronal co-cultures and sciatic nerves were prepared for Western blot analysis by homogenization in radioimmunoprecipitation assay (RIPA) buffer [PBS with 1% Nonidet P-40/0.5% deoxycholate/0.1% SDS/1 mM PMSF/Complete protease inhibitor tablets (Roche Molecular Biochemicals)] followed by high-speed centrifugation. Protein determination was made by using the Bicinchoninic Acid Kit (Sigma). Equivalent amounts of total protein extract from each sample were mixed with sample buffer, boiled, and loaded onto SDS polyacrylamide gels. Electrophoretic separation of the extracts was typically performed on 10-15% (depending on the molecular weight of the protein of interest) discontinuous acrylamide gels under denaturing conditions. The proteins were then transferred to pure nitrocellulose membranes (PROTRAN BA85, Schleicher and Schuell, 0.45 μm) and probed with specific antibodies. The mouse monoclonal anti-myelin-associated glycoprotein (MAG; Chemicon) was used at a concentration of 2.5 μg/ml (under nonreducing conditions); the mouse monoclonal anti-P0 antibody was used at a dilution of 1:5,000. All primary antibodies were incubated overnight at 4° C. Secondary HRP-conjugated anti-mouse IgG and anti-rabbit IgG antibodies were used at a dilution of 1:10,000 (Jackson ImmunoResearch). The blots were developed by chemiluminescence (Renaissance, DuPont_NEN) as described by the manufacturer. All of the blots were imaged and quantitated in the linear range for the corresponding antibodies. Protein concentrations of the samples were serial diluted until linear intensities were achieved. In many instances, the blots were stripped and reprobed with different antibodies.

[2] = test system: Schwann cell/neuronal cocultures; test: P0 immunocytochemistry of mature myelin internodes in Schwann cell/neuronal cocultures; type: cell-based; conditions: for Schwann cell proliferation and morphology of ensheathed Schwann cells / cell death (neurofilament and nuclear staining): 100 ng/ml; for formation of mature myelin internodes (P0 immunostaining): BDNF, TrkB-Fc, TrkC-Fc 1 μg/ml, added at day of induction, 6 days after induction
Protocol: as §1, §2
Immunocytochemistry. Cocultures were fixed in 4% paraformaldehyde before dehydration through a graded ethanol series (50, 70, 90, and 100%). Samples were then permeabilized and blocked by incubation with 20% normal goat serum or 10% FCS. Primary antibodies included the mouse monoclonal anti-P0 antibody used at a dilution of 1:500 and the mouse monoclonal anti-MAG at a concentration of 2.5 μg/ml. The Texas red-conjugated anti-mouse IgG (Jackson ImmunoResearch) was used as a secondary antibody at a dilution of 1:1,000. Cellular nuclei were examined by using the Hoechst dye. Samples were mounted and fluorescence microscopy was accomplished by using a Nikon Microphot FXA.

sciatic nerve [3] = test: Western blot of MAG and P0 in developing sciatic nerve after s.c. injection of newborn mice; type: in vivo, mouse; conditions: for P0 and MAG protein expression, wild-type mice: newborn wild-type mice, Western-blot 4 days later
Protocol: as §3
(§4) Injections in Mouse Sciatic Nerve. BDNF, NT3, TrkB-Fc, and TrkC-Fc (3 μg each; Regeneron Pharmaceuticals) were injected s.c. starting from the caudal portion of the greater trochanter region and running parallel along the sciatic nerve (total volume of 5 μl). T he contralateral leg served as a control for each factor with the injection of saline. Injections were performed on 1-day-old mouse pups (C57BU6, Simonsen Laboratories) and the sciatic nerves were extracted and processed 48 h later. A second set of mice were reinjected with the factors and then examined after an additional 48 h (4 days of total treatment). Nerves used for electron microscopy were trimmed and incisions were made at the flexure of the greater trochanter. In total, 11 animals were analyzed after injection with BDNF, 12 with TrkB-Fc, 11 with NT3, and 7 with TrkC-Fc.

[4] = test system: sciatic nerve of p75NTR -/- mice; test: Western blot of P0 and MAG in sciatic nerve of injected newborn p75NTR -/- mice; type: in vivo, mouse; conditions: Western-blot 4 days later
Protocol: (§5) (A-B) Newborn wild-type and p75^NTR −/− mice were injected with BDNF (wild-type, n=10; p75^NTR −/−, n=25) and NT3 (wild-type, n=13; p75^NTR −/−, n=14) or the scavengers TrkB-Fc (wild-type, n=13; p75^NTR −/−, n=20) and TrkC-Fc (wild-type, n=14; p75^NTR −/−, n=20) and the levels of (A) P0 and (B) MAG were analyzed by Western-blot 4 days later. Asterisks: p<0.01. (C-D) Wild-type and p75^NTR −/− SC/DRG cocultures were established from E13 mouse embryos obtained through crossing heterozygous (p75^NTR +/−) mice. Levels of (C) P0 and (D) MAG were determined by Western-blot six days after initiation of myelination in the presence of the different factors. Asterisks: p<0.01.

[5] = test system: wild-type SC/DRG cocultures; test: Western blot of P0 and MAG in wild-type mouse SC/DRG cocultures; type: cell-based; conditions: six days after initiation of myelination
Protocol: as §5

[6] = test system: p75NTR -/- SC/DRG cocultures; test: Western blot of P0 and MAG in p75NTR -/- mouse SC/DRG cocultures; type: cell-based; conditions: six days after initiation of myelination
Protocol: as §5

SC/DRG cocultures = test: TUNEL analysis of neuronal or glial survival in SC/DRG cocultures; type: cell-based, rat; conditions: added at the start of myelination
sciatic nerve [7] = test: Electron microscopy of myelin ultrastructure in developing sciatic nerve of injected newborn mice; type: in vivo, mouse
Protocol: as §4
Electron Microscopy. Electron microscopy was performed by the Electron Microscopy Facility in the Department of Microbiology and Immunology (Stanford University, CA). Processing of the sciatic nerve was accomplished by fixation in 2% glutaraldehyde and 4% paraformaldehyde solution in PBS, followed by post-fixation in 1% OSO4. […] Finally, samples were infiltrated and embedded in pure epoxy.

[8] = 100 ng/ml added at day of induction, analysed after 6 days of induction
[9] = 3 μg at P1, reinjected 2 days later, nerves at P5, vs contralateral saline
[10] = 3 μg at P1, reinjected, nerves at P5

Molecule: NT3: neurotrophin-3, gift from Regeneron Pharmaceuticals
- diminished expression of MAG [1, 8]: ~2 fold
- diminished expression of P0 [1, 8]: ~3 fold
- Schwann cell proliferation and morphology of ensheathed Schwann cells [2]: Neither BDNF nor NT3 caused any changes
- cell death (neurofilament and nuclear staining) [2]: no sign of increased cell death
- formation of mature myelin internodes (P0 immunostaining) ([2]; NT3 100 ng/ml): inhibited the appearance of myelin internodes
- thickness and length of detected internodes vs control cultures ([2]; NT3 100 ng/ml, TrkB-Fc 1 μg/ml): significantly thinner and shorter in length
- inhibition of MAG and P0 expression in the sciatic nerves (sciatic nerve [3]; 3 μg s.c., mice treated for 2 days, vs contralateral leg): ~25%
- P0 and MAG protein expression, wild-type mice (sciatic nerve [3]): inhibited
- P0 and MAG protein expression, p75NTR -/- mice [4]: inhibited
- myelin protein expression (P0, MAG), wild-type cocultures [5]: inhibited
- myelin protein expression (P0, MAG), p75NTR -/- cocultures [6]: inhibited

Molecule: COC(=O)[C@@]1(O)C[C@H]2O[C@]1(C)n1c3ccccc3c3c4c(c5c6ccccc6n2c5c31)C(=O)NC4 [K252a, K-252a, reference compound]
- accumulation of myelin proteins MAG and P0 ([1]; rat SC/DRG cocultures treated for 6 days from induction): increase in myelin protein accumulation
- formation of mature myelin internodes (P0 immunocytochemistry) ([2]; rat SC/DRG cocultures, Example 2): increase
- neuronal or glial survival (SC/DRG cocultures): does not affect neuronal or glial survival

B1: BDNF: neurotrophin brain-derived neurotrophic factor, gift from Regeneron Pharmaceuticals (protein, UniProt P23560 19-247, looked up)
Neurotrophic factor BDNF …: APMKEANIRGQGGLAYPGVRTHGTLESVNGPKAGSRGLTSLADTFEHVIEELLDEDQKVRPNEENNKDADLYTSRVMLSSQVPLEPPLLFLLEEYKNYLDAANMSMRVRRHSDPARRGELSVCDSISEWVTAADKKTAVDMSGGTVTVLEKVPVSKGQLKQYFYETKCNPMGYTKEGCRGIDKRHWNSQCRTTQSYVRALTMDSKKRIGWRFIRIDTSCVCTLTIKRGR
- enhancement of MAG expression over control cultures [1, 8]: ~2 fold
- enhancement of P0 expression over control cultures [1, 8]: ~1.5 fold
- modulation of myelination (P0 and MAG) in the presence of K252a ([1]; in combination with K252a, 6 days): still able to modulate myelination
- Schwann cell proliferation and morphology of ensheathed Schwann cells [2]: Neither BDNF nor NT3 caused any changes
- cell death (neurofilament and nuclear staining) [2]: no sign of increased cell death
- formation of mature myelin internodes (P0 immunostaining) ([2]; NT3 100 ng/ml): produced an enhancement in myelin formation
- enhancement of MAG and P0 expression in the sciatic nerves (sciatic nerve [3]; 3 μg s.c., 1-day-old mouse pups, vs saline-injected contralateral leg): more than 50%
- P0 and MAG protein expression, wild-type mice (sciatic nerve [3]): enhanced P0 and MAG protein expression
- P0 and MAG expression in sciatic nerve (sciatic nerve [3]; s.c. injection of newborn mice, nerves isolated four days later (Example 2)): enhanced P0 and MAG expression
- decrease in ensheathed axons (sciatic nerve [7]; [9]): 2 fold
- number of myelinated axons (sciatic nerve [7]; [9]): significant correlative increase in the number of myelinated axons
- more wraps of myelin on average than control nerves (sciatic nerve [7]; [10]): 25%
- percentage of myelinated axons with more than 25 wraps of myelin (sciatic nerve [7]; [10]): more than 30%
- thickness of the myelin sheath (number of lamellae distribution) vs contralateral control nerve (sciatic nerve [7]; newborn mice, sciatic nerve): significantly thicker
- total number of axons vs contralateral control nerves (sciatic nerve [7]; ultrastructural studies): did not reveal any differences in the total number of axons
- P0 and MAG protein expression, p75NTR -/- mice [4]: neither BDNF nor TrkB-Fc were able to modulate myelin protein expression
- myelin protein expression (P0, MAG), wild-type cocultures [5]: enhanced
- myelin protein expression (P0, MAG), p75NTR -/- cocultures [6]: neither BDNF nor TrkB-Fc had any effect
